This note sets out measurements from patent US20230265179A1 (TWIST BIOSCIENCE, published 2023).

The target in one assay is T1, TSLP (UniProt Q969D9 29-159).
T1 construct: Soluble analyte of the SPR assay
Kind of assay: SPR, Carterra LSA, antibody amine-coupled, 1:1 model.

For assay [1], the target named is T2, TSLP on over-expressing Expi293 cells (UniProt Q969D9 29-159, limits assumed).
T2 construct: whole, on cells; Target of the flow cytometry assay; also called cytokine over-expressing Expi293 cells
Kind of assay: flow cytometry, 100 nM, TSLP over-expressing Expi293 over parent cells. On the technique in general: In flow cytometry, cells or beads pass a laser one at a time.
Protocol: (§1) All incubations and washes were in buffer containing PBS+1% BSA. MFI Ratio is defined by the mean fluorescence intensity (MFI) of the cytokine over-expressing Expi293 cell over the Expi293 parent cell. […] EC50 was calculated in GraphPad Prism.

The target in assay [2] is T2, TSLP on over-expressing Expi293 cells. The assay can be described thus: flow cytometry titration on TSLP over-expressing Expi293 cells.
Protocol: as §1
The target of assay [3] is T3, IL1RL2 over-expressed on Expi293 cells (UniProt Q9HB29 20-575, limits assumed).
T3 construct: whole, on cells; Target of the flow cytometry assay; MFI ratio is over-expressing cells over parent cells
T3 sequence (looked up): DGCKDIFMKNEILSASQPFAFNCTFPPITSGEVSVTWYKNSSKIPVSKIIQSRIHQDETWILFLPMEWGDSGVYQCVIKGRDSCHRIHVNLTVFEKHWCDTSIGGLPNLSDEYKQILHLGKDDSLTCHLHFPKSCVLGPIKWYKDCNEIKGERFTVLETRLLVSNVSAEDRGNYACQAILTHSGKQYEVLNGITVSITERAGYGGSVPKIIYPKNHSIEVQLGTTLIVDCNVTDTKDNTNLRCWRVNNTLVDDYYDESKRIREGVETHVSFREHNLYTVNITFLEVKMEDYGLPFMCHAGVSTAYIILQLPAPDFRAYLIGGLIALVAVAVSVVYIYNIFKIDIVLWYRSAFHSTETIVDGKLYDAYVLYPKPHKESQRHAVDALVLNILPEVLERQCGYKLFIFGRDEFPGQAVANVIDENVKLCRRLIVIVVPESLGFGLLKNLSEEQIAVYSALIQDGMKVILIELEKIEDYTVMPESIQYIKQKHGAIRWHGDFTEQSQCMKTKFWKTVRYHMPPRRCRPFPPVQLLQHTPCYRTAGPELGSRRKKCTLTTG
The assay can be described thus: flow cytometry titration on over-expressing Expi293 cells.
Protocol: as §1

The target in assay [4] is T3, IL1RL2 over-expressed on Expi293 cells. Kind of assay: flow cytometry, over-expressing Expi293 vs parent cells, 100 nM antibody.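 Further: ratio is mean fluorescence intensity on over-expressing Expi293 cells divided by that measured on parental Expi293 cells.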
Protocol: as §1

B1: TSLP-121 (antibody, V domains shown)
VH: QVQLVQSGAEVKKPGSSVKVSCKASGGSFSSYAISWVRQAPGQGLEWMGGIIPMNYAQKFQGRVTITADESTSTAYMELSSLRSEDTAVYYCARQLAAALVYWGQGTLVTVSS
VL: EIVLTQSPGTLSLSPGERATLSCRASQNVNTRYLAWYQQKPGQAPRLLIYAASSRATGIPDRFSGSGSGTDFTLTISSLEPEDFAVYYCQQYESSPYNFGQGTKVEIK
One may read the Kd as the equilibrium constant for the complex coming apart. A lower Kd goes with a tighter complex. The koff is a measure of how fast the partners let go of each other. Lower therefore signals a long-lived complex. The term kon denotes the rate constant with which the complex forms. The low end stands for slower complex formation, the high end for faster complex formation. By EC50 is commonly meant the concentration that produces a half-maximal response. A low value points to higher potency in that assay. Regarding B1, in the assay with TSLP, the Kd came to 2.96 nM, the off-rate constant (koff) is 0.00175 s⁻¹ and the kon was 589000 M⁻¹ s⁻¹. Moreover, the “100 nM (MFI Ratio)” value in assay [1] was 37.5 MFI ratio. Moreover, the EC50 in assay [2] was 1.35 nM.

B2: TSLP-13 (VHH)
VHH: EVQLVESGGGLVQPGGSLRLSCAASGFTFDDNDMGWFRQAPGKEREFVGAISWSGNTTYYKYYADSVKGRFTISADNSKNTAYLQMNSLKPEDTAVYYCSNQYGWGQGTLVTVSS
notes: VHH-Fc (IgG2 Fc); not shown: IgG2 Fc of the VHH-Fc format
In the assay with TSLP, B2 yielded a Kd of 41.3 nM, a koff of 0.0013 s⁻¹ and a kon of 31600 M⁻¹ s⁻¹. Also, the “100 nM (MFI Ratio)” value in assay [1] was 120 MFI ratio. The molecule further showed an EC50 in assay [2] of 0.37 nM.

B3: TSLP-17 (VHH)
VHH: EVQLVESGGGLVQPGGSLRLSCAASGTTFEIYPMGWFRQAPGKEREFVAAIHWNSGITYYADSVKGRFTISADNSKNTAYLQMNSLKPEDTAVYYCARDVFYFDSSGYSLWGQGTLVTVSS
notes: as for B2
Regarding B3, in the assay with TSLP, binding was characterised by a dissociation constant (Kd) of 11.2 nM, the koff was 0.00042 s⁻¹ and the kon worked out at 37500 M⁻¹ s⁻¹. For the same molecule, the “100 nM (MFI Ratio)” value in assay [1] stood at 154 MFI ratio. In assay [2], this molecule registered an EC50 of 0.12 nM.

B4: TSLP-5 (VHH)
VHH: EVQLVESGGGLVQPGGSLRLSCAASGVTLDTDAMGWFRQAPGKEREFVAWINNRGTTDYADSVKGRFTISADNSKNTAYLQMNSLKPEDTAVYYCARVSQWLLGGPANWGQGTLVTVSS
notes: as for B2
In the assay with TSLP, B4 had a Kd of 24.5 nM, a koff of 0.000759 s⁻¹ and a kon of 31000 M⁻¹ s⁻¹. The “100 nM (MFI Ratio)” value in assay [1] came to 149 MFI ratio. Also, in assay [2], the EC50 was found to be 0.73 nM.

B5: IL1RL2-285 (antibody, V domains shown)
VH: EVQLLESGGGLVQPGGSLRLSCAASGFTFSNFAMSWVRQAPGKGLEWVSTISGSGGSTSYADSVKGRFTISRDNSKNTLYLQMNSLRAEDTAVYYCAREKRSSGWYPHFDYWGQGTLVTVSS
VL: DIQMTQSPSSLSASVGDRVTITCRASQTIGTYLNWYQQKPGKAPKLLIYGGSRLQSGVPSRFSGSGSGTDFTLTISSLQPEDFATYYCQQSYSTPYTFGGGTKVEIK
notes: IgG2
In assay [3], B5 yielded an EC50 of 618 nM. The “100 nM FACS (MFI Ratio)” value in assay [4] turned out to be 214.

B6: IL1RL2-298 (antibody, V domains shown)
VH: EVQLLESGGGLVQPGGSLRLSCAASGFTFPSYAMAWVRQAPGKGLEWVSAISGSGSSPYYADSVKGRFTISRDNSKNTLYLQMNSLRAEDTAVYYCAREKRSSGWYPHFDYWGQGTLVTVSS
VL: DIQMTQSPSSLSASVGDRVTITCRASRSIDTYLNWYQQKPGKAPKLLIYGGSRLQSGVPSRFSGSGSGTDFTLTISSLQPEDFATYYCQQSYSTPPVTFGGGTKVEIK
notes: IgG2
Molecule B6 registered an EC50 in assay [3] of 100 nM. Moreover, in assay [4], the “100 nM FACS (MFI Ratio)” value was 49.6.

B7: IL1RL2-299 (antibody, V domains shown)
VH: EVQLLESGGGLVQPGGSLRLSCAASGFIFSRYAMSWVRQAPGKGLEWVSAISESGGNTYYADSVKGRFTISRDNSKNTLYLQMNSLRAEDTAVYYCARQRYPGGSGSYADYWGQGTLVTVSS
VL: DIQMTQSPSSLSASVGDRVTITCRASQSISTDLNWYQQKPGKAPKLLIYGVSSLQSGVPSRFSGSGSGTDFTLTISSLQPEDFATYYCQQSHSTPFTFGGGTKVEIK
notes: IgG2
In assay [3], B7 registered an EC50 of 2.25 nM. In addition, the “100 nM FACS (MFI Ratio)” value in assay [4] was found to be 19.2.

B8: IL1RL2-165 (antibody, V domains shown)
VH: EVQLLESGGGLVQPGGSLRLSCAASGFTFSSAAMSWVRQAPGKGLEWVSAISGSGGNTYYADSVKGRFTISRDNSKNTLYLQMNSLRAEDTAVYYCARSYGGGFDYWGQGTLVTVSS
VL: DIQMTQSPSSLSASVGDRVTITCSGHNLGDKFASWYQQKPGKAPKLLIYSASNLESGVPSRFSGSGSGTDFTLTISSLQPEDFATYYCQSYASQGIHYVFGQGTKVEIK
notes: IgG2
In assay [3], B8 returned an EC50 of 34.5 nM. Also, the “100 nM FACS (MFI Ratio)” value in assay [4] was 707.

B9: IL1RL2-179 (antibody, V domains shown)
VH: EVQLLESGGGLVQPGGSLRLSCAASGFTFSPRRMSWVRQAPGKGLEWVSTIDDLGRHTYYADSVKGRFTISRDNSKNTLYLQMNSLRAEDTAVYYCAKLANSLLFDYWGQGTLVTVSS
VL: DIQMTQSPSSLSASVGDRVTITCRASENIYSNLAWYQQKPGKAPKLLIYAASDLESGVPSRFSGSGSGTDFTLTISSLQPEDFATYYCGATDLSPWSIVFDQGTKVEIK
notes: IgG2
Consider B9, for which it took 27.5 nM to reach a half-maximal effect in assay [3] (EC50). Also, in assay [4], the “100 nM FACS (MFI Ratio)” value came to 17.7.

B10: IL1RL2-180 (antibody, V domains shown)
VH: EVQLLESGGGLVQPGGSLRLSCAASGFTFSDYDMSWVRQAPGKGLEWVSAIEGAGSDTYYADSVKGRFTISRDNSKNTLYLQMNSLRAEDTAVYYCARLAPEFDYWGQGTLVTVSS
VL: DIQMTQSPSSLSASVGDRVTITCRASQSISSYVNWYQQKPGKAPKLLIYQNDKRPSGVPSRFSGSGSGTDFTLTISSLQPEDFATYYCQPSFYFPYAFGQGTKVEIK
notes: IgG2
With B10, it took 15.2 nM to reach a half-maximal effect in assay [3] (EC50). In addition, in assay [4], the “100 nM FACS (MFI Ratio)” value worked out at 21.5.

B11: TSLP-9 (VHH)
VHH: EVQLVESGGGLVQPGGSLRLSCAASGPMSSSAVMGWFRQAPGKEREAVALGWSGGSTYYADSVKGRFTISADNSKNTAYLQMNSLKPEDTAVYYCAIHTSREIWGQGTLVTVSS
notes: as for B2
In the assay with TSLP, B11 yielded a Kd of 31 nM, a koff of 0.00151 s⁻¹ and an on-rate (kon) of 48600 M⁻¹ s⁻¹. Also, the “100 nM (MFI Ratio)” value in assay [1] was 8.6 MFI ratio. Besides, a half-maximal effect in assay [2] (EC50) was put at 0.73 nM.

B12: TSLP-16 (VHH)
VHH: EVQLVESGGGLVQPGGSLRLSCAASGFSLDDYAMGWFRQAPGKEREGVATIAGGYTYYADSVKGRFTISADNSKNTAYLQMNSLKPEDTAVYYCAAFDGYTGSDWGQGTLVTVSS
notes: not shown: IgG2 Fc of the VHH-Fc format
In the assay with TSLP, B12 had a Kd of 11.9 nM, a koff of 0.00143 s⁻¹ and a kon of 120000 M⁻¹ s⁻¹. Moreover, the “100 nM (MFI Ratio)” value in assay [1] was 10 MFI ratio. In assay [2], this molecule came in with an EC50 of 0.58 nM.

B13: IL1RL2-187 (antibody, V domains shown)
VH: EVQLLESGGGLVQPGGSLRLSCAASGFTLSSYAMSWVRQAPGKGLEWVSSISSSGGYTGYADSVKGRFTISRDNSKNTLYLQMNSLRAEDTAVYYCAKSFSFFDYWGQGTLVTVSS
VL: DIQMTQSPSSLSASVGDRVTITCRASQSISSYVNWYQQKPGKAPKLLIYGSSYLQSGVPSRFSGSGSGTDFTLTISSLQPEDFATYYCQQNNNWPTTFGQGTKVEIK
notes: IgG2
In the case of B13, the EC50 in assay [3] worked out at 2.26 nM. For the same molecule, the “100 nM FACS (MFI Ratio)” value in assay [4] stood at 45.

B14: IL1RL2-300 (antibody, V domains shown)
VH: EVQLLESGGGLVQPGGSLRLSCAASGFTFSGYAMNWVRQAPGKGLEWVSTISGSGVSTYYADSVKGRFTISRDNSKNTLYLQMNSLRAEDTAVYYCAREQHLVEGDFDNWGQGTLVTVSS
VL: DIQMTQSPSSLSASVGDRVTITCRTSQSISSYLNWYQQKPGKAPKLLIYAASSLQSGVPSRFSGSGSGTDFTLTISSLQPEDFATYYCQQSYNIPYTFGQGTKVEIK
notes: IgG2
B14 gave an EC50 in assay [3] of 1.57 nM. In addition, in assay [4], the “100 nM FACS (MFI Ratio)” value was found to be 23.9.

B15: IL1RL2-153 (antibody, V domains shown)
VH: EVQLLESGGGLVQPGGSLRLSCAASGFIFQWYDMGWVRQAPGKGLEWVSSIRGSSSSTYYADSVKGRFTISRDNSKNTLYLQMNSLRAEDTAVYYCARDLGDYWGQGTLVTVSS
VL: DIQMTQSPSSLSASVGDRVTITCRASQNIRSYLNWYQQKPGKAPKLLIYDDIDRPSGVPSRFSGSGSGTDFTLTISSLQPEDFATYYCQTWGPGIRVFGQGTKVEIK
notes: IgG2
For the molecule B15, the EC50 in assay [3] was 445 nM. The “100 nM FACS (MFI Ratio)” value in assay [4] worked out at 350.

B16: TSLP-10 (VHH)
VHH: EVQLVESGGGLVQPGGSLRLSCAASGFTLDDYVMGWFRQAPGKEREGVATIAGGGTYYADSVKGRFTISADNSKNTAYLQMNSLKPEDTAVYYCASSGSYYPGHFEWGQGTLVTVSS
notes: as for B2
In the assay with TSLP, B16 gave a Kd of 8.43 nM, a koff of 0.000805 s⁻¹ and a kon of 95500 M⁻¹ s⁻¹. Besides, the “100 nM (MFI Ratio)” value in assay [1] was 67.8 MFI ratio. Moreover, a half-maximal response in assay [2] (EC50) required 1.4 nM.

B17: TSLP-2 (VHH)
VHH: EVQLVESGGGLVQPGGSLRLSCAASGLTFSTTVMGWFRQAPGKEREWVATIAGDGSTFYADSVKGRFTISADNSKNTAYLQMNSLKPEDTAVYYCADINEDWGQGTLVTVSS
notes: as for B2
In the assay with TSLP, B17 registered a Kd of 6.49 nM, a koff of 0.0018 s⁻¹ and an on-rate (kon) of 278000 M⁻¹ s⁻¹. For the same molecule, the “100 nM (MFI Ratio)” value in assay [1] is 218 MFI ratio. In assay [2], this molecule had an EC50 of 0.43 nM.
